Consider 6 molecules from US20110065645A1, “Compositions and Methods for Modulating Neuron Degeneration and Neuron Guidance” (The Regents of the University of California, priority 2009, published 2011).

The subject of one assay is PKA. The assay is described as follows: Western blot of activated phospho-PKA (Thr197) in dissociated commissural neurons. In kind it is cell-based, rat. Conditions: Shh-N 2.5 μg/ml for one hour; KT5720 25 μM for 15 minutes. Here is the method: To confirm that PKA activity can be reduced in commissural neurons exposed to Shh, we treated dissociated spinal cord commissural neurons with Shh and analyzed the level of activated PKA. 24 hr after plating, commissural neurons were serum starved overnight and then treated with 2.5 μg/ml (150 nM) of Shh-N recombinant protein (R&D) for one hour prior to lysate collection. Forskolin (25 μM), and the PKA inhibitor, KT5720 (25 μM) were added to the commissural neuron culture as controls for 15 minutes before lysis. We then tested these lysates for levels of activated PKA with an antibody that specifically recognizes an activated form of the catalytic domain of PKA (phosphorylated at Thr197).
Dissociated commissural neuronal culture. Spinal cords were isolated from rat E13 embryos and commissural neurons were dissociated as previously described.^(8) In brief, embryos were treated with Dispase I (0.25 mg/ml; D4818, Sigma) for 5 minutes prior isolation of spinal cords, followed by collection of spinal cord dorsal domains by microdissection and incubation with Trypsin (1 mg/ml; T47-99, Sigma) for 10-12 min in a 37° C. water bath. The tissue was then triturated with flamed glass pipettes and a single cell suspension was plated on poly-D-lysine (PDL; 20 μg/ml) and laminin (10 μg/ml) coated coverslips or 12 well plates (Corning). More than 90% cells in these cultures express TAG-1, a marker for spinal cord commissural neurons (FIG. 35B). 10^5 dissociated cells were plated on PDL/laminin coated coverslips and cultured for 24 hrs before processed for immunohistochemistry as described above. For Western blot analysis, 10^6 dissociated cells were plated on PDL/laminin coated 12-well tissue culture plates and cultured initially for 24 hrs in dorsal explant media (replenished daily) then changed to low serum medium overnight prior to treatments. […]

The subject of assay [1] is pre-crossing commissural axons. The assay is described as follows: Precrossing commissural explant assay in collagen gel. Type of assay: cell-based, rat. As to conditions: collagen gel containing Netrin-1 and Shh expressing COS-7 cells. The text has this:
Shh activates Semaphorin repulsion in commissural axons. We investigated the mechanisms by which Semaphorin repulsion in commissural axons is switched on during spinal cord midline pathfinding. Commissural neuron cell bodies are located in the dorsal spinal cord and initially extend axons to the ventral midline, the floor plate, in the process of several days (from late E8.9/early E9.5 in mouse and late E10 and E11 in rats till at least E12.5 in mouse and E14 in rat). The commissural axons in the rostral (anterior) spinal cord differentiate and their axons develop earlier than their caudal (posterior) counterparts. At each axis level, the more dorsal populations tend to differentiate and extend axons later than the ventral population in the dorsal spinal cord during this stage of development. […] To quantify these effects, the total length of axons extending towards (proximal) or away (distal) from cell aggregates (FIG. 31B) was calculated in each experiment as the ratio of axons growing proximally (P) divided by axons growing distally (D) (FIG. 31i). […]
Precrossing commissural explant assay. […] For quantification the total length of axon bundle was measured in the proximal (P) and distal (D) quadrants as depicted in FIG. 31B. […]

The target in the next assay is Fzd3-EGFP (mouse) (UniProt Q61086). In words: cell-based or functional assay.
The next assay has as its target Fzd3-mCherry (mouse) (UniProt Q61086). The assay is described as follows: cell-based or functional assay.
The test system of another assay is TH axons. The assay is described as follows: mdDA explant assay with Wnt-expressing cell clumps, anti-TH staining. In kind it is cell-based. As to conditions: embryonic mdDA explants from ventral midbrain. The text has this:
FIG. 7. Multiple Wnts attract TH axons in explant assays. FIG. 7 depicts histogram showing that embryonic mdDA explants dissected out from the ventral midbrain and cultured with cell clumps expressing various Wnts.
3c: Use of explant assays to test the effects of Wnts on mdDA and 5-HT axon growth and guidance. To directly address whether Wnts regulate the guidance of these monoaminergic axons, we use explant assays to test the function of the identified Wnts and determine whether they are attractive or repulsive. […] We plan to continue test additional Wnts especially those which are expressed in the brainstem and the forebrain targets using the same assay.

For the next assay, the system named is β-catenin. In words: β-catenin immunostaining in commissural axon growth cones. Conditions: bath application; LiCl 2 mM. In kind it is cell-based. An excerpt: To understand how atypical PKC/Par pathway regulates axon guidance, we set out to determine the subcellular localization of aPKC, their substrates and downstream cellular effectors. […] Thus, our high-resolution confocal imaging detects a tendency of β-catenin being concentrated to one side of the growth cone (FIG. 9A). It is possible that there is low level of Wnt proteins in the culture (many neurons express Wnts). […] Therefore, it is also possible that intrinsic aPKC signaling can create chirality within the growth cone with out extrinsic signals. Such intrinsic polarity may then robustly regulate cellular morphology upon directional instructions from the environment such as a Wnt gradient. It is well known that GSK3β phosphorylates β-catenin, which then leads to proteosome-mediated degradation of β-catenin. And it is also known that GSK3β is phosphorylated and inhibited by PKCζ^(1,2). Therefore, inhibiting GSK3β or the proteosome activity generally should increase β-catenin level throughout the growth cone, canceling the asymmetry. […] We are now testing the hypothesis that Wnt proteins may locally activate PKCζ, which then inhibits GSK3β and locally stabilizes β-catenin, which is part of the asymmetric cellular mechanism leading to directional choice of a growth cone. We examine the localization of β-catenin in post-crossing commissural axon growth cones in the “post-crossing” assay and “open-book” assays.

“Also recorded” adds a separate entry of the source.

Fzd3-mCherry (mouse), sequence (Q61086 23-666): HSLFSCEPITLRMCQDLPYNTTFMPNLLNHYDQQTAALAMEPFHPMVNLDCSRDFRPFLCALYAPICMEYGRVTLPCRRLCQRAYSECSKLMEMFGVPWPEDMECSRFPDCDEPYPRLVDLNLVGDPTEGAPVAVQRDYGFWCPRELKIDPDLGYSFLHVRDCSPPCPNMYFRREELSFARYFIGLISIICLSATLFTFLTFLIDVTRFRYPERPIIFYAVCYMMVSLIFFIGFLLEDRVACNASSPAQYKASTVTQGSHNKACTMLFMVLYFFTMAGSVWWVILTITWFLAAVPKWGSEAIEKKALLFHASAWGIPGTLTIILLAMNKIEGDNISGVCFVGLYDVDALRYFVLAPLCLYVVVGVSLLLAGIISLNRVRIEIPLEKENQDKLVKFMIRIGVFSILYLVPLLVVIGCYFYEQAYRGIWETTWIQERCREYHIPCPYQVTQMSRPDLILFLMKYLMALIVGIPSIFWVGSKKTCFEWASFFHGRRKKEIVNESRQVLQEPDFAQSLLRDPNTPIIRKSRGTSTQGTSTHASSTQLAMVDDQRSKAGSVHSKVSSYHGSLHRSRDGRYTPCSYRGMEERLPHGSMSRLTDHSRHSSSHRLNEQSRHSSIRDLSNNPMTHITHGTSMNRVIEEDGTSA
Fzd3-EGFP (mouse), sequence (Q61086 23-666): as above

Consider “Shh-N: recombinant mouse Sonic Hedgehog, amino-terminal peptide (R&D); also secreted by transfected COS-7 cells”, for which the “level of activated PKA” value with PKA is given as “reduce the level of activated PKA; also recorded: significant reduction of activated PKA”. The “response of pre-crossing commissural axons to Semaphorins” value in assay [1] is “repelled by Sema3B- and Sema3F-secreting cell clumps”.

For the molecule `c1ccc2c(Oc3nc(Nc4ccc(N5CCOCC5)cc4)c4ncn(C5CCCCC5)c4n3)cccc2c1` [Purmorphamine, reference compound], in the assay with PKA, the “level of activated PKA” value was “reduce the level of activated PKA”.

“recombinant Wnt5a (R&D Systems) (ligand)”: the commissural axon length after 24 hours on Wnt5a-coated coverslips with Fzd3-EGFP (mouse) amounted to 36%. Dvl1-EGFP (from UniProt P51141 1-695): in the assay with Fzd3-mCherry (mouse), the Fzd3 level at the cell membrane (surface biotinylation, avidin IP, anti-mCherry IB) in HEK293T cells was determined as 3 fold.

B1: Wnt7b: Wnt family protein expressed by cell clumps in the TH axon explant assay (protein, UniProt P56706 25-349, looked up)
Protein Wnt-7b: ALSSVVALGANIICNKIPGLAPRQRAICQSRPDAIIVIGEGAQMGINECQYQFRFGRWNCSALGEKTVFGQELRVGSREAAFTYAITAAGVAHAVTAACSQGNLSNCGCDREKQGYYNQAEGWKWGGCSADVRYGIDFSRRFVDAREIKKNARRLMNLHNNEAGRKVLEDRMQLECKCHGVSGSCTTKTCWTTLPKFREVGHLLKEKYNAAVQVEVVRASRLRQPTFLRIKQLRSYQKPMETDLVYIEKSPNYCEEDAATGSVGTQGRLCNRTSPGADGCDTMCCGRGYNTHQYTKVWQCNCKFHWCCFVKCNTCSERTEVFTCK
Turning to B1, the “attraction of TH axons” value in the assay on TH axons was “attracts the TH-positive neuron axons”.

B2: Wnt3a: purified Wnt3a protein; also expressed by cell clumps in explant assays (protein, UniProt P56704 19-352, looked up)
Protein Wnt-3a: SYPIWWSLAVGPQYSSLGSQPILCASIPGLVPKQLRFCRNYVEIMPSVAEGIKIGIQECQHQFRGRRWNCTTVHDSLAIFGPVLDKATRESAFVHAIASAGVAFAVTRSCAEGTAAICGCSSRHQGSPGKGWKWGGCSEDIEFGGMVSREFADARENRPDARSAMNRHNNEAGRQAIASHMHLKCKCHGLSGSCEVKTCWWSQPDFRAIGDFLKDKYDSASEMVVEKHRESRGWVETLRPRYTYFKVPTERDLVYYEASPNFCEPNPETGSFGTRDRTCNVSSHGIDGCDLLCCGRGHNARAERRREKCRCVFHWCCYVSCQECTRVYDVHTCK
For the molecule B2, the “attraction of TH axons” value with TH axons is reported as “strongest effect”. Besides, the “β-catenin level and asymmetry in the growth cone” value in the assay on β-catenin is on record as “increased the levels of β-catenin throughout the growth cone”.
